The DeepSol protein solubility set

Assay: soluble on expression in E. coli; label from the status in PepcDB or PDB records

| Sequence | soluble on expression in E. coli |
| --- | --- |
| MGSIGSMGKPIEGFLVAAIQFPVPIVNSRKDIDHNIESIIRTLHATKAGYPGVELIIFPEYSTQGLNTAKWLSEEFLLDVPGKETELYAKACKEAKVYGVFSIMERNPDSNKNPYNTAIIIDPQGEIILKYRKLFPWNPIEPWYPGDLGMPVCEGPGGSKLAVCICHDGMIPELAREAAYKGCNVYIRISGYSTQVNDQWILTNRSNAWHNLMYTVSVNLAGYDNVFYYFGEGQICNFDGTTLVQGHRNPWEIVTGEIYPKMADNARLSWGLENNIYNLGHRGYVAKPGGEHDAGLTYIKDLAAGKYKLPWEDHMKIKDGSIYGYPTTGGRFGK | soluble |
| MGHHHHHHSHMAPKKAKKRAGGANSNVFSMFEQTQIQEFKEAFTIMDQNRDGFIDKNDLRDTFAALGRVNVKNEEIDEMIKEAPGPINFTVFLTMFGEKLKGADPEETILNAFKVFDPEGKGVLKADYVREMLTTQAERFSKEEVDQMFAAFPPDVTGNLDYKNLVHIITHGEEKD | soluble |
| MDMAKDKGFFKKAKTGKNKSSATPYAEECAIQIPSEIDNEQMHRMPAGGEEDQYLRIKHMSALIKKYGNLPIITTRETRLPDYWLELFTAIDEGDTPKAHALFHLLPQEDIILRALRAVHSEDYLYQLIKYCIQAKHFGFKQLNADLVVTPKTFEILIKDCATTLFNPAKTHFSFGLPSHHAYTQMGSGFCLINKTAMLIKQAELSSVQPPRFVIIGTDVNRDNGLCDILRHSFSHLSICHIDVFDSRVYPQQDFSYINNEFNSEGVDVGKNIHVWHHNDLSYYAVDLSLTSRKSVGVHPALLFALEQFKASIREAKVKGQKIALYLPTGWDSHEDETAYCGKFVKGRMLGKTAAHQFRFNDGDLSYFYESIFTLYNENKDCIDTIYWGLEGGYDRTMYKRELTLLLQVIEKQLLPQDSNSHNMSCLEHHHHHH | not soluble |
| MSHLNYNHLYYFWMVCKQGSVTKAADALFLTPQTVTGQIKALEDRLDGKLTKRNGRSIEPTELGQLVFKYADRMFGLSYEMLDIVNYSQRSNLLFDVGVADALSKRLVSKILLTSVPGDNRIHLRCFESTHEMLLEQLAQHKLDMILSDCPVDSSQSPGLFSKKLGESRMSFFSFGDVDFAPFPAVLQSKKLLVPGSRTAMGRKVRQWFDRQGLQPHILGEFDDSALMKAFAIYHSDAVFMAPSFYVSEVDAESSLKLIGHVDEIKEEYYVIFAERMIQHPAVKNVCDADFTNLFL | not soluble |
| MITMTEVKGKTANESRVFKTSRVFPTDLNDHNTLFGGKILSEMDMVASISASRHSRKECVTASMDWVDFLHPVRSSDCVSYESFVIWTGRTSMEVFVKVVSEYLISGEKRIAATSFVTFVALSKENNPVPVPRVIPDTEEEKESHRIAVLRAEQRHIRKAESKKVATLLTF | soluble |
| MGSDKIHHHHHHMEVIDLLFSLTPKTKKEDLFDRERELKDLEKLLETYPIVVITGLRRVGKSSLVKVFLNKSDLLHITVDGRRLYETSGGNISSHHLTRFLGEELSRISKSQKLLNVLKRVRGITVSGTSIELNPKEFSLSDLLEKLNETAKRRKKKIVIFFDEAQYLRYYGSRGGNDLLALFAYCYDNFENVRFIISGSEVGVLHDFLKLEDYSSPLHGRGIGFLTVRPFTFDQSVDFLMEGFREVGEKINFDVEEIVREIDGIVGYLVLFGVKYLEKKKKDEALKEVFHAVKALFEKEMEELRKRSERYPFILRQIARGINTWSALKNIFRAKGDFIGDSRLYSLLETLEKMSFIEKTQSGYRIVDPVFERILRE | not soluble |
| MVRRRTASPSPSAPVRSAPRPAAQSSFAAPPPRPAAAAPAYHPPAAPTPMGAPMGAPSQGPGLMKQMAATAGGVAIGSAVGHAVGGMFTGGGSSHAEQAPAAAAAPAGAPQASGYSQPCEFEWRQFVDCAQNQSDVSLCNGFNDIFKQCKARYA | not soluble |
| MATWQGTNGGLLAGIGGVNSNAPSVNDIGNTLQLIRQNNDIERSGANNVGLTALQGLSGIAGVFQQEKQAQRQKEFQQAYANAYASGDRGALRQLATQYPDQIESVRKGMGFIDEEQRNSIGTLAAGARLASSSPEAMQSWLQNNAGELARVGVNPHDVAQMYQQNPRQFGEFVDHLGMNSLGPEKYFDLQDKMQGRQVTMRGQDLDSQTAARNQAITMRGQDIQANLGQQRINLDAETNRINNENKRLDRMLSAETNDLKRQEIQSRIAANNQQLQQKQQALNDGYKDGINTLTTSMFTLNDIVSSPSLKSITGLRGVIPNVPGSQAADTQARLDTFKSQAYLTAVQAMRGMGALSDAEGKKLDQAVGSLQNSQSEESFRRNAGVILNTLNQKRNEAVGKYVQQNGIKRVEAPQASIDYLKQHPELSIDFINRYGYLPSLGQ | soluble |
| MAHHHHHHMILLQLTVVGYLNTGKTSLINSIMNNEIFTNYSHTPLPMIYYKVHKDKNRAFCVEIEDTSVDVDINNFTNMMRKEITTNSKNMKNPVFSYFENPCIPFQAHDPYNSISYGRMAYFLVFDLTNPSTFEYVKMIYLNMSSIYEKYYTLKPFISLVGNKSDLADENCALVREAENFSNEHMVQLWLTSAYTGKNVKKLFLHTINMVYNNTNLWKYDIEESGSESSES | not soluble |
| MGVYPPSEDSFLIIEYASCSGKAIEIGCGTGIVSICFLKRGCDIEAVDISDLAVECAKDNASRNGLTLKVYRSDLFSGVSGTYDTILFNAPYIPVEGEDASWSGGRNLEVVSRFLGQAREHLSASGQIYIVLSDLTDNEGMFRMMGYDYFIIKKISFEFEAIVLYKLTLKALEHHHHHH | not soluble |
| MGSDKIHHHHHHMTPTAFNTGRVQVNKTIAELRSLGKDARERVPFSQLGQYQPLDRDSNQLMDRIRRLLIPELLPERTRRMAASPFAFFRGTAELMEADLRQQPNSTIETFVCGDAHIGNFGFYASPERRLLFDLNDFDEAGINPWEWDLKRLLVSVLLAAQANGIKEKKIKQFLPTVAASYRKSMKQMFTQTTLARFYPLNDVEKLIQASALTDADSQLLMTIINRASKRDSEQVVRKFTTLDSRGNLCFRENAPKTTHVTDDVTTHIATYFAAYRQTVRPDVNLLLSQYHLTDVVRHSVGVGSFGSRCYLVLLTSIDGSHLVLQIKEALPTRQQGSQTLAQLTVAQEQTEGQRIVDCQKILQSASDSFLGYFAGNQHSFYVRQFRDMKESIDLTQLDWGQLQTYANTCAWTLAIAHCQSPTAAMIRGYIGGGKQFDEQLAAFASAYAQQVQTDYESFVAYRLPTKQP | not soluble |
| MRQIKVVLIGGGTGLSVMARGLREFPIDITAIVTVADNGGSTGKIRDEMDIPAPGDIRNVIAALSDSESVLSQLFQYRFEENQISGHSLGNLLIAGMTNITNDFGHAIKALSKILNIKGRVIPSTNTSVQLNAVMEDGEIVFGETNIPKKHKKIDRVFLEPNDVQPMEEAIDALREADLIVLGPGSLYTSVISNLCVNGISDALIHSDAPKLYVSNVMTQPGETDGYSVKDHIDAIHRQAGQPFIDYVICSTQTFNAQVLKKYEEKHSKPVEVNKAELEKESINVKTSSNLVEISENHLVRHNTKVLSTMIYDIALELISTIPFVPSDKRKLEHHHHHH | soluble |
| TSPVNWDVTGTFSMNRTYMKKLPYNGRDKNRVQGGLVWDAKSGTYVETGGLAEGERIGGRWGYKYLGVYDTDEEAAKAPVDTKVSGSKMNKKKVAGDAIWADLDNNGVIDDKDITFIGWANPDKKGALINNLSYKNFSLRLVVDFALGHSIANIWRCRANANARNAIITTTDVTNGNIWWQTGDAATAKYPRYDVASDWDNGYRNHMRTIAYAGMNSNGNADNTAYYSKGDYLCFREVSLGYELPRSVCSKMKVKGVSLNAGVTNIGYITAFDGLNPEQYDGQETGEYFLPIQFNFGVRLTF | not soluble |
| VVDFGALPPEINSARMYAGPGSASLVAAAKMWDSVASDLFSAASAFQSVVWGLTTGSWIGSSAGLMVAAASPYVAWMSVTAGQAELTAAQVRVAAAAYETAYGLTVPPPVIAENRAELMILIATNLLGQNTPAIAVNEAEYGEMWAQDAAAMFGYAATAATATEALLPFEDAPLITNPGGLLEQAVAVEEAIDTAAANQLMNNVPQALQQLAQPTKSIWPFDQLSELWKAISPHLSPLSNIVSMLNNHVSMTNSGVSMASTLHSMLKGFAPAAAQAVETAAQNGVQAMSSLGSQLGSSLGSSGLGAGVAANLGRAASVGSLSVPQAWAAANQAVTPAARALPLTSLTSAAQTAPGHMLGGLPLGQLTNSGGGFGGVSNALRMPPRAYVMPRVPAAG | soluble |
| MEDYIKNWNKIISNCSFDNTYKMAWAKAIVETAISKDIDSALIISFEEIAELFLKYYWNQTIYFNLTQGSSLKKIPEALKYTKNLIDLYYAKKGDYFPQRYEKIIFEDFGIESEKNKTIKKIVKTLGQDVSWRFMNLSGETYPLYELVENQVVLSLENAKLLKKYSDFLFPMINYRWTQMLESFNHSPRISSKVRAIDEDSIKKRNNLNKFREFLDLEFSDNKRYCFYCGKEIVDDDLTIDHVIPWSFMYSDDIWNLVYCHRSENSSKSNRIPEETDVKALECRNKLLLEKLTENKISSKRVDELQLAIEKDYVKKFWISSRGLEHHHHHH | not soluble |
| MDLHSGLPYWVVKNSLLDYFHPLEDDFSTDIVVVGSGITGALMVHELCSAGLRCCMVDKRSIATGSSIASTALLQYEIDVPLCEMAEIIGEDNAVSAYRASLASIADIEKVLKETGVDADFEKRPSLFYASIPKDIELIEKEYVIRKKHNLPVRLLGKEEIKKLYNIEVPGNALLNRVSAQMDAYKATTGLLLYHMKKDGLEIFTHTGVTECVEMPEGYIIETDRGHKIECKYVIIASGFEAGKFLSREIMDLTSTYALVSHPVDSKDLWPEQCLIWETAEPYLYIRTTRGNRIIVGGEDEKFSDPERRDALLRKKTLVLEKKFRRLFPSIPFKTEMAWCGTFSTTKDGLPFIGNCPDKDRMFFDLGYGGNGITFSMIGAQIICKKLQGIDDERGRIFGYERIEKYWLEHHHHHH | not soluble |
| KVSKGLILYPGAKVEIESYAPLARKIAESGYEVVIVKMPLNLAILGTNKAQKVMDSYNNIEHWVIGGHSLGGVAASNFARDNKLIEGVVFLASYPMGDELKELGKKVISIWGSKDGVVNFKSLVESKQKLPDDTTYVEIEGGNHAQFGDYGKQKGDNDAIISQEKQLNITANSIIKFLKNIS | not soluble |
| MDEEGASVVITIKNEAKNIQKLLDSLFNNDYEHFEVVVVDDMSNDGTEGIVKKYDKVKYIRTRCSRGEGRNIGAMNSSFENILFTDGDAIVSNGWIGGMVSVLNNGFEIAIGKTVYTGKKRYIQDRVKIYFNGIEITAPSVNLAYKKRAFFSLGGFDKRFVTAEDIDLNLRAAMSGFKFGFCNECVVYAKVRDSFISFLKQAFWNGYGRAQLEEKHPGMLKKTDIRLGHNFYDFMHMSAGAAGYLLYKLR | soluble |
| MSDQIADARLVPLGAILTRMSTVVDMPETRGHLISAITTASDPGEILYLSSRADFSEGGSIRGGVPIIAPWFAKNLGHDELQHGWARRVEWETIPTNGGIDARTSHDDWDLRLGTQVLPHGFAMMLKARNASPLRRDFQSAFHPYFRVADVRTTTVTVGDQEFRFDGTAVDQAVPLPEWTPLVIKDSQRTITVTYQGADHAVVWNPGSELAAQMTDVGEGEWTEFVCVEPALLGDHAQGISVPPWDWVEIGMTVKVTPAQ | not soluble |
| MPLEAGLLEILACPACHAPLEERDAELICTGQDCGLAYPVRDGIPVLLVDEARRPEAAALEHHHHHH | not soluble |
| MGSDKIHHHHHHCVRVPTLMIVPEAAQSGVAETVFVASNRVFANGQFQSARQDDVTYTRFTVQIPQDRDAGAVRPGRARRTGPNLRTDFVASDGVHLGGEGRFQSELLAEARRRGTSEVMVFIHGFASSIGTGIYRTAQIRYDFEVPGVAVHYAWPSSGSYIGYAYDRDSALFARDGLEELITGIMQTDLDVVLVAHSLGSSVVMEVLRQLRIAGRNALIDRIHGVILFSPDLDVDVFRSQASRIGDLPQPFVIFTSQRDQALTFSSIMAGRTARVGNLATADQVAEFDVTLIDVSAFEGGVRDRLNHFAGATSQSAVQILRDAAQINSAFEDGPDARPGLLPGTILTIQNATLVLLDPEHAR | not soluble |
